{
  "source": "paper PMC4653306",
  "about": "“Metagenomics of an Alkaline Hot Spring in Galicia (Spain): Microbial Diversity Analysis and Screening for Novel Lipolytic Enzymes” (Frontiers in Microbiology, 2015)",
  "proteins": {"B1": {"name": "LOB4Est (uncultured organism) (protein)", "chain": "SRPRTAVHDRVLELVQQQIAAGQQLGVQVCAYQNGEKIVDIVAGVMGPDDPRPVQPDTLFNSFSTTKGVAATALHILAEQGKLEYEQPVARYWPAFAANGKERVTVAQAMSHQAGLHAMPTPSTIETLCDWEGGLNWVASGVPAWEPGTATGYHAITYAWVVGGIVYGATGRHIKDVIREEIAIPLGVADELFVGIPEGVEDRLATLAVPAPGEGMALPIPPDHDFFKAMPPSLGGHVYNDMRVRRACLPSANGHFSARALAKMYAALAGGGVVDGVRLVSPERIALMQRILTADMDRVLMLPLRKGVGFMMGGPVNGVSGVFGPRETAFGHSGAGGSTAFCDPETGLAVAVTINQMQMTLQAEGPTYAICQLIREELGCA", "notes": "yeast alpha-factor secretion signal fusion (removed on secretion), N-terminal FLAG-tag kept; secreted by Saccharomyces cerevisiae BJ3505 (YEpFLAG-1), assayed as unpurified extracellular medium"}},
  "substrate": "CCCCCCCCCCCC(=O)Oc1ccc([N+](=O)[O-])cc1",
  "experiment": "spectrophotometric p-nitrophenol release (A400), initial rates, Michaelis-Menten fit",
  "assay_type": "biochemical, uncultured organism",
  "details": "extracellular medium of recombinant yeast, Tris/HCl pH 7.5, CaCl2, 40 °C, pNP12 0.002-2.5 mM",
  "excerpt": "spectrophotometric p-nitrophenol release (A400), initial rates, Michaelis-Menten fit on LOB4Est",
  "data": [
    {"protein": "B1", "values": [
      {"measurement": "Km", "value": 298, "unit": "µM"},
      {"measurement": "Vmax", "value": 264, "unit": "µM/min"}
    ]}
  ]
}
